Patent publication US20220119489A1, “COMPOSITIONS AND METHODS FOR […] […] DYSTROPHY AND RELATED DISORDERS” (CHILDREN'S MEDICAL CENTER CORPORATION, published 2022)

Molecular target: CD82 (mouse) (mouse, UniProt P40237)
Test: IP with anti CD82 antibodies, mouse muscle tissue, mass spectrometry

Row | Binder | Total | Unique
1 | IGHG_RABIT (other) GQPKAPSVFPLAPCCGDTPSSTVTLGCLVKGYLPEPVTVTWNSGTLTNGVRTFPSVRQSSGLYSLSSVVSVTSSSQPVTCNVAHPATNTKVDKTVAPSTCSKPTCPPPELLGGPSVFIFPPKPKDTLMISRTPEVTCVVVDVSQDDPEVQFTWYINNEQVRTARPPLREQQFNSTIRVVSTLPITHQDWLRGKEFKCKVHNKALPAPIEKTISKARGQPLEPKVYTMGPPREELSSRSVSLTCMINGFYPSDISVEWEKNGKAEDNYKTTPAVLDSDGSYFLYNKLSVPTSEWQRGDVFTCSVMHEALHNHYTQKSISRSPGK | 25 | 7
2 | Annexin 2 (mouse) (other) STVHEILCKLSLEGDHSTPPSAYGSVKPYTNFDAERDALNIETAVKTKGVDEVTIVNILTNRSNVQRQDIAFAYQRRTKKELPSALKSALSGHLETVILGLLKTPAQYDASELKASMKGLGTDEDSLIEIICSRTNQELQEINRVYKEMYKTDLEKDIISDTSGDFRKLMVALAKGRRAEDGSVIDYELIDQDARELYDAGVKRKGTDVPKWISIMTERSVCHLQKVFERYKSYSPYDMLESIKKEVKGDLENAFLNLVQCIQNKPLYFADRLYDSMKGKGTRDKVLIRIMVSRSEVDMLKIRSEFKRKYGKSLYYYIQQDTKGDYQKALLYLCGGDD | 1 | 1
3 | IGG2B_MOUSE (other) KTTPPSVYPLAPGCGDTTGSSVTLGCLVKGYFPESVTVTWNSGSLSSSVHTFPALLQSGLYTMSSSVTVPSSTWPSQTVTCSVAHPASSTTVDKKLEPSGPISTINPCPPCKECHKCPAPNLEGGPSVFIFPPNIKDVLMISLTPKVTCVVVDVSEDDPDVQISWFVNNVEVHTAQTQTHREDYNSTIRVVSTLPIQHQDWMSGKEFKCKVNNKDLPSPIERTISKIKGLVRAPQVYILPPPAEQLSRKDVSLTCLVVGFNPGDISVEWTSNGHTEENYKDTAPVLDSDGSYFIYSKLNMKTSKWEKTDSFSCNVRHEGLKNYYLKKTISRSPGK | 1 | 1
4 | EF1A1_MOUSE (other) GKEKTHINIVVIGHVDSGKSTTTGHLIYKCGGIDKRTIEKFEKEAAEMGKGSFKYAWVLDKLKAERERGITIDISLWKFETSKYYVTIIDAPGHRDFIKNMITGTSQADCAVLIVAAGVGEFEAGISKNGQTREHALLAYTLGVKQLIVGVNKMDSTEPPYSQKRYEEIVKEVSTYIKKIGYNPDTVAFVPISGWNGDNMLEPSANMPWFKGWKVTRKDGSASGTTLLEALDCILPPTRPTDKPLRLPLQDVYKIGGIGTVPVGRVETGVLKPGMVVTFAPVNVTTEVKSVEMHHEALSEALPGDNVGFNVKNVSVKDVRRGNVAGDSKNDPPMEAAGFTAQVIILNHPGQISAGYAPVLDCHTAHIACKFAELKEKIDRRSGKKLEDGPKFLKSGDAAIVDMVPGKPMCVESFSDYPPLGRFAVRDMRQTVAVGVIKAVDKKAAGAGKVTKSAQKAQKAK | 2 | 2
5 | ALDOA_MOUSE (enzyme) PHPYPALTPEQKKELSDIAHRIVAPGKGILAADESTGSIAKRLQSIGTENTEENRRFYRQLLLTADDRVNPCIGGVILFHETLYQKADDGRPFPQVIKSKGGVVGIKVDKGVVPLAGTNGETTTQGLDGLSERCAQYKKDGADFAKWRCVLKIGEHTPSALAIMENANVLARYASICQQNGIVPIVEPEILPDGDHDLKRCQYVTEKVLAAVYKALSDHHVYLEGTLLKPNMVTPGHACTQKFSNEEIAMATVTALRRTVPPAVTGVTFLSGGQSEEEASINLNAINKCPLLKPWALTFSYGRALQASALKAWGGKKENLKAAQEEYIKRALANSLACQGKYTPSGQSGAAASESLFISNHAY | 3 | 3
6 | LYZ1_MOUSE (enzyme) KVYNRCELARILKRNGMDGYRGVKLADWVCLAQHESNYNTRATNYNRGDRSTDYGIFQINSRYWCNDGKTPRSKNACGINCSALLQDDITAAIQCAKRVVRDPQGIRAWVAWRTQCQNRDLSQYIRNCGV | 1 | 1
7 | ENOB_MOUSE (enzyme) AMQKIFAREILDSRGNPTVEVDLHTAKGRFRAAVPSGASTGIYEALELRDGDKARYLGKGVLKAVEHINKTLGPALLEKKLSVVDQEKVDKFMIELDGTENKSKFGANAILGVSLAVCKAGAAEKGVPLYRHIADLAGNPDLVLPVPAFNVINGGSHAGNKLAMQEFMILPVGASSFKEAMRIGAEVYHHLKGVIKAKYGKDATNVGDEGGFAPNILENNEALELLKTAIQAAGYPDKVVIGMDVAASEFYRNGKYDLDFKSPDDPARHISGEKLGELYKNFIQNYPVVSIEDPFDQDDWATWTSFLSGVDIQIVGDDLTVTNPKRIAQAVEKKACNCLLLKVNQIGSVTESIQACKLAQSNGWGVMVSHRSGETEDTFIADLVVGLCTGQIKTGAPCRSERLAKYNQLMRIEEALGDKAVFAGRKFRNPKAK | 7 | 7
8 | ENOA_MOUSE (enzyme) SILRIHAREIFDSRGNPTVEVDLYTAKGLFRAAVPSGASTGIYEALELRDNDKTRFMGKGVSQAVEHINKTIAPALVSKKVNVVEQEKIDKLMIEMDGTENKSKFGANAILGVSLAVCKAGAVEKGVPLYRHIADLAGNPEVILPVPAFNVINGGSHAGNKLAMQEFMILPVGASSFREAMRIGAEVYHNLKNVIKEKYGKDATNVGDEGGFAPNILENKEALELLKTAIAKAGYTDQVVIGMDVAASEFYRSGKYDLDFKSPDDPSRYITPDQLADLYKSFVQNYPVVSIEDPFDQDDWGAWQKFTASAGIQVVGDDLTVTNPKRIAKAASEKSCNCLLLKVNQIGSVTESLQACKLAQSNGWGVMVSHRSGETEDTFIADLVVGLCTGQIKTGAPCRSERLAKYNQILRIEEELGSKAKFAGRSFRNPLAK | 2 | 2
9 | CISY_MOUSE (enzyme) ASSTNLKDVLSNLIPKEQARIKTFKQQHGKTVVGQITVDMMYGGMRGMKGLVYETSVLDPDEGIRFRGYSIPECQKMLPKAKGGEEPLPEGLFWLLVTGQMPTEEQVSWLSREWAKRAALPSHVVTMLDNFPTNLHPMSQLSAAITALNSESNFARAYAEGMNRAKYWELIYEDCMDLIAKLPCVAAKIYRNLYREGSSIGAIDSRLDWSHNFTNMLGYTDPQFTELMRLYLTIHSDHEGGNVSAHTSHLVGSALSDPYLSFAAAMNGLAGPLHGLANQEVLVWLTQLQKEVGKDVSDEKLRDYIWNTLNSGRVVPGYGHAVLRKTDPRYSCQREFALKHLPKDPMFKLVAQLYKIVPNILLEQGKAKNPWPNVDAHSGVLLQYYGMTEMNYYTVLFGVSRALGVLAQLIWSRALGFPLERPKSMSTDGLMKFVDSK | 2 | 2
10 | Annexin 1 (mouse) (other) AMVSEFLKQARFLENQEQEYVQAVKSYKGGPGSAVSPYPSFNVSSDVAALHKAIMVKGVDEATIIDILTKRTNAQRQQIKAAYLQENGKPLDEVLRKALTGHLEEVVLAMLKTPAQFDADELRGAMKGLGTDEDTLIEILTTRSNEQIREINRVYREELKRDLAKDITSDTSGDFRKALLALAKGDRCQDLSVNQDLADTDARALYEAGERRKGTDVNVFTTILTSRSFPHLRRVFQNYGKYSQHDMNKALDLELKGDIEKCLTTIVKCATSTPAFFAEKLYEAMKGAGTRHKALIRIMVSRSEIDMNEIKVFYQKKYGISLCQAILDETKGDYEKILVALCGGN | 2 | 2
11 | FBX50_MOUSE (other) MEKTQDRDTLSGRMEAEGSLNSEELPPHPQSPPPPPSPRSPTSPVTPELPQPNAPTEVEARQLLVEEWGPLSGKLELPPRISWQLLFLERPLYRNLLSSPNPEGINIYQPAPPTGPTRKPLKELGNFRGWYITTQNLQGPLSWTVKEQCVNLLAKKLWEELLDDEQPDITIMDWFEDSRLDQCVYELHVWLLAADRRTVIAQHHVAPRTNGRGPPGRWIQVSHVFRQYGPGVRFVYFQHKAKNRMEPGGLRRTRVTDSSVSVQLRE | 2 | 2
12 | PRDX1_MOUSE (enzyme) SSGNAKIGYPAPNFKATAVMPDGQFKDISLSEYKGKYVVFFFYPLDFTFVCPTEIIAFSDRADEFKKLNCQVIGASVDSHFCHLAWINTPKKQGGLGPMNIPLISDPKRTIAQDYGVLKADEGISFRGLFIIDDKGILRQITINDLPVGRSVDEIIRLVQAFQFTDKHGEVCPAGWKPGSDTIKPDVNKSKEYFSKQK | 3 | 2
13 | QCR2_MOUSE (other) SLKVAPKVKTSAAPGGVPLQPQDLEFTKLPNGLVIASLENYAPLSRIGLFVKAGSRYEDSNNLGTSHLLRLASSLTTKGASSFKITRGIEAVGGKLSVTATRENMAYTVEGIRSDIEILMEFLLNVTTAPEFRRWEVAALRSQLKIDKAVAFQNSQTRIIENLHDVAYKNALANPLYCPDYRMGKITSEELHYFVQNHFTSARMALVGLGVSHSVLKQVAEQFLNMRGGLGLAGAKAKYRGGEIREQNGDNLVHAAIVAESAAIGNAEANAFSVLQHLLGAGPHIKRGNNTTSLLSQSVAKGSHQPFDVSAFNASYSDSGLFGIYTISQAAAAGEVINAAYNQVKAVAQGNLSSADVQAAKNKLKAGYLMSVETSEGFLSEIGSQALAAGSYMPPSTVLQQIDSVADADVVKAAKKFVSGKKSMAASGNLGHTPFLDEL | 1 | 1
14 | Creatine Kinase, Muscle type (enzyme) not shown | 14 | 11
